From the supplement of paper PMC12764529
± gives the half width of the 95% confidence interval.

How the values were obtained:
[1] = folding stability dG unfold from chymotrypsin proteolysis; higher = more stable
Outline: (§1)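 Mini-proteins designed to be under 80 residues and free of cysteine were carried in a PA-tagged cDNA display construct and digested with trypsin and with chymotrypsin. Each protease was applied at 11 threefold-diluted concentrations, alongside a no-protease condition, before sequencing. K50 came from Bayesian fitting of the sequencing counts, and unfolding free energy was obtained by comparing it with a sequence-predicted unfolded-state K50 and a shared folded-state K50, for each protease separately or for both together. Designs were retained only if their AlphaFold2 dimer inter-PAE exceeded 15.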

[2] = folding stability dG unfold (combined trypsin and chymotrypsin); higher = more stable
Outline: as §1

[3] = folding stability dG unfold from trypsin proteolysis; higher = more stable
Outline: as §1

Row | Sequence | folding stability dG unfold [1] [kcal/mol] | folding stability dG unfold [2] [kcal/mol] | folding stability dG unfold [3] [kcal/mol]
1 | SAGGMIQIERDKDGYLRITIWVPGDPKEAEEIAENIIELLQDLGFDEVDIDYEPFDGGVMIEITVKVSAGGS [r8_113_TrROS] | 3.49 ± 0.083 | 3.29 ± 0.077 | 2.9 ± 0.12
2 | SAGGSAGGSAGKPEIEMEIETRTVRLPDGYLLRFSRMRITLPDGSKFEFLSVEIIRLEDLSAGGSAGGSAGG [r17_312_TrROS_Hall] | 5.56 ± 0.14 | 5.38 ± 0.36 | 3.88 ± 0.31
3 | SAGGSAGGSDDMIPIPFKIKLKDPNGKPHEFPVTIWINPEDGMIMIRYPNQPIMIDPDKIEIESAGGSAGGS [r20_48_TrROS] | 1.07 ± 0.19 | 1.01 ± 0.16 | 0.975 ± 0.089
4 | SAGGASLDDLPLEGIEVLEEEVIPLPNGSTLRKFLVKKPSPGPPELLVEVTEFVDEGSSSVSVTPLGSAGGS [r16_469_JUSTAS] | -0.301 ± 0.45 | 0.0997 ± 0.14 | 0.179 ± 0.054
5 | SAGGSAGGSAGGMLVDPSTNTVTINLPPNTTLTFNYPDSTLTVTVPANETLTVTFPLTSSAGGSAGGSAGGS [r10_464_JUSTAS] | 0.947 ± 0.049 | 1.67 ± 0.1 | 2.19 ± 0.075
6 | SAGLEVVKKLAEELGFPVEILRVEYDPETGELTFEAVARPKDGKTRRVRIRIRVPKESDEVEIELEYFDSAG [r5_929_TrMRF] | 3.95 ± 0.082 | 4.51 ± 0.1 | 4.67 ± 0.11
7 | SAGKVTVERDPSTNVVNVTVEVERERDVPPGAPVTETIIIPARVKFDEDGKLVEPISLDDILAAIRAAGSAG [r5_239_TrMRF] | 0.684 ± 0.095 | 0.629 ± 0.21 | 0.221 ± 0.12
8 | SGSTHTVRPPGGLTLTFTFSTDGTTEEAAQALKEALAAALPPDVTVTFDRIDPDKPVTPDEAATVDATVVSA [r9_178_JUSTAS] | 1.69 ± 0.11 | 1.21 ± 0.17 | 0.482 ± 0.055
9 | SAGGSAGGNEIAEKLKKKYPNIKIKSVKINPKEGKIEIDLGFPKDAKPETIKKIEKEIEELAKKSAGGSAGG [r6_97_TrMRF] | 0.442 ± 0.14 | 0.646 ± 0.34 | 0.578 ± 0.056
10 | SAGSMKIKIKAKVPPGPYRIRIMWQYPGGDFKPVEEETVDPGQEVKIPIEFPDGKPFDPDNIRVMIEPPSAG [r5_287_TrROS] | 2.47 ± 0.097 | 2.08 ± 0.25 | 1.44 ± 0.14
11 | SAGGSASPEKVAEELKKKGYKEVKITKDPNTNVTTVTVEDPSGKKYTLTVDPKNPTVVSKKEFSLDSAGGSA [r15_648_JUSTAS] | 1.51 ± 0.096 | 1.25 ± 0.14 | 0.926 ± 0.043
12 | SAGGSAGGSAGSITFTVPASEFTEEEILERLVEELGIPREKVDLVEIKETPDGKLKVTIKIPSAGGSAGGSA [r18_118_JUSTAS] | 2.488 ± 0.021 | 2.63 ± 0.06 | 2.86 ± 0.085
13 | SAGGKKVVIVFDVENLTPEQIRELVRKAIESLPDPENVVIVANVTSPATVEELAELAKEHPEVKFVVGSAGG [r13_718_TrMRF] | 3.45 ± 0.085 | 3.56 ± 0.12 | 3.79 ± 0.11
14 | SAGGSAGGSMLTVKITLPNGEKIEIEIEAESEEEAKAAAEKLLEALREAGVSLEDVKVEVVEPSAGGSAGGS [r12_295_TrROS_Hall] | 2.92 ± 0.11 | 3.66 ± 0.29 | 4.46 ± 0.67
15 | SAGGSAGGSISIDPAKVLEVKTRANGQLLITTEDEVYVVDPSTGTVTKITKEEAEKLPEDVPLLSAGGSAGG [r6_890_JUSTAS] | 1.94 ± 0.037 | 1.96 ± 0.15 | 1.9 ± 0.042
16 | SAGGSGMVITIPVELPTPRTLTFTFYPETGTATVEVSPGVPAAEVRATVEEVFAAHGLKLNPITLLSAGGSA [r2_497_JUSTAS] | 1.61 ± 0.075 | 1.39 ± 0.066 | 0.995 ± 0.02
17 | SNLMIHFENPDNGVRVMIQINPEHGRIKLSVMYPNGKPVAEQTIEVDPNKIRLRFKVGGRKFEIEIEIPESA [r9_385_TrROS] | 5.6 ± 0.29 | 5.62 ± 0.54 | 4.32 ± 0.19
18 | SAGGSAGGSAGMPIEKALEQADKNGRPVQIRVPNGRDIYITVKYKNGKYKIEIMPAEEIKSAGGSAGGSAGG [r17_463_TrROS] | 1.89 ± 0.085 | 1.51 ± 0.18 | 1.09 ± 0.047
19 | SAGGPGAEIWFIKIPIEIEMKMKRKRENDPDGNPRPEWEMEMKIEIPIEIYPIRVRLDPDGKIKSIEFSAGG [r13_148_TrROS] | 4.3 ± 0.11 | 3.67 ± 0.23 | 2.77 ± 0.15
20 | SAGGSAGGSAGGIGPEIVEAALIEAKEKVPEDEEVEILVRDPVTGEVLRLRIYPDRVELGSAGGSAGGSAGG [r7_44_TrMRF] | 0.785 ± 0.14 | 0.698 ± 0.19 | 0.384 ± 0.11
21 | SAGKVKIVKIDKGKNKITIEFYDDGKKIATIPFPPNFPNTKVIAEVNEDGSIKVTFISGDKPIEITIDASAG [r5_533_TrMRF] | 2.64 ± 0.1 | 2.59 ± 0.12 | 2.57 ± 0.16
